Legend:
[1] = target: T1, CC chemokine receptor 4 (CCR4) (human, UniProt P51679 1-360); experiment: depletion of CCR4+ tumor-primed T cells with antibody-conjugated beads, checked by flow cytometry
T1 construct: whole, on cells; Endogenous CCR4 on human T cell subsets and Mac-1 cells
T1 sequence (looked up): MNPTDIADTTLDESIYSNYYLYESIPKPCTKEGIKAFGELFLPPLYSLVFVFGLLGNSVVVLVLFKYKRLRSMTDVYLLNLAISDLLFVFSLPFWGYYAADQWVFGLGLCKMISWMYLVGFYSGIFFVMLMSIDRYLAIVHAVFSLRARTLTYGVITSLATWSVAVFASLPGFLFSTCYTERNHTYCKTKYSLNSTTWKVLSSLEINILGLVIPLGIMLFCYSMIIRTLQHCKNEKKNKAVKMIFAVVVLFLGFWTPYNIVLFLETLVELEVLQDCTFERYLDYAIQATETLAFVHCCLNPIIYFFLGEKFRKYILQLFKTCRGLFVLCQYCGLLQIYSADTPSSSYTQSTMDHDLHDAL
Procedure: FIG. 4. The activity of tumor-primed T cells on IGROV-1 cells. (A) Tumor-primed T cells were stained by anti-CD3, CD4, CD8, CD25 and (B) CCR4 antibodies. CCR4-depleted tumor-primed T cells by mAb2-3-conjugated beads and T cell subsets in tumor-primed T cells were analyzed by flow cytometry. (C) Tumor-primed T cells and mAb2-3-depleted tumor-primed T cells were incubated with IGROV-1 cells for 24 and 48 hours and then the supernatant were harvested and detected the expression level of IFN-γ. […] (D) Intracellular IFN-γ staining of CD4 and CD8 T cells from coculture. Cells were harvested at 48 hours post-coculture; incubated for 6 h in the presence of brefeldin A; stained for CD3, CD4, and CD8; fixed in paraformaldehyde; permeabilized; and stained for intracellular IFN-γ. The cells were gated on lymphocytes by size and CD markers and analyzed by flow cytometry. (E) The cytotoxic activities of tumor-primed T cells and mAb2-3-depleted tumor primed T cells were further detected by LDH ELISA assay. All experiments represented triplicates in each time point with the means±S.D. and performed in two independent experiments. *, **, and *** represents student's t-test p value<0.05, 0.01, and 0.005, respectively.
To establish an OvCA xenograft bearing humanized mouse model, IGROV-1-specific T cells in vitro were created that could be tested subsequently for in vivo immunotherapy. […]

[2] = target: T2, CD25 (TAC), the α chain of IL-2 receptor (UniProt P01589 22-272, limits assumed); experiment: transiently transfected 293T cells, control experiment
T2 construct: whole, on cells; also called IL-2Rα; α subunit chain
T2 sequence (looked up): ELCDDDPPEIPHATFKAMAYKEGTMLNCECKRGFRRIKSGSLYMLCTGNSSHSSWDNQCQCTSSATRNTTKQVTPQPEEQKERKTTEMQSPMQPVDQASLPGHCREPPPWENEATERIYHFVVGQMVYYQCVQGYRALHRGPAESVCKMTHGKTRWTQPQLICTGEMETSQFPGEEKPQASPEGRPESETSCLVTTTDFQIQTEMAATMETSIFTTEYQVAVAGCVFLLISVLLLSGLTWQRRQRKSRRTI

[3] = target: T3, IL-2 receptor γ subunit chain (UniProt P31785 23-369); experiment: as above
T3 construct: whole, on cells; also called γ chain; IL-2R γ
T3 sequence (looked up): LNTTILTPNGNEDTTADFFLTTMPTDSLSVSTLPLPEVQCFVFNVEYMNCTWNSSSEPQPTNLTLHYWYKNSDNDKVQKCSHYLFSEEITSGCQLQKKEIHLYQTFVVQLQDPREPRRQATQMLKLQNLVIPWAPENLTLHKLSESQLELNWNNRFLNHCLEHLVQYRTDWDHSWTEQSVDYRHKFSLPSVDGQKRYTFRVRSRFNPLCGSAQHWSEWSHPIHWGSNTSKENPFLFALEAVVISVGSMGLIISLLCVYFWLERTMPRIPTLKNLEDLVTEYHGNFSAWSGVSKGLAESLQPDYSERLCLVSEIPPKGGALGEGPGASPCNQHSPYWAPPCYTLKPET

[4] = target: T4, IL-2 receptor β subunit chain (UniProt P14784 27-551); experiment: as above
T4 construct: whole, on cells; also called β chain; IL-2R β
T4 sequence (looked up): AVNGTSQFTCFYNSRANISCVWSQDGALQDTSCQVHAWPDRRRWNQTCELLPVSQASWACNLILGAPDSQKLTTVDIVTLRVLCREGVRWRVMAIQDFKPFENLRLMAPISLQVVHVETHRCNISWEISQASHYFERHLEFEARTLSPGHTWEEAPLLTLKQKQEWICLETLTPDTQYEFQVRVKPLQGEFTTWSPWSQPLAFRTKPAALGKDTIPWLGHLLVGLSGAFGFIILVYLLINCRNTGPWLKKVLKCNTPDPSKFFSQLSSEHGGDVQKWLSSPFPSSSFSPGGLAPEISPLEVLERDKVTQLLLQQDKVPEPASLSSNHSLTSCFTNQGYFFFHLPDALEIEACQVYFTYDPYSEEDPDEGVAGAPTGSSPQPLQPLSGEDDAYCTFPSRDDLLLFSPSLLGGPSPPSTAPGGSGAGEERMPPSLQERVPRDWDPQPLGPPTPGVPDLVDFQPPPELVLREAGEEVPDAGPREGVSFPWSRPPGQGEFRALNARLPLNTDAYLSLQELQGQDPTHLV

[5] = target: T5, IL-2 receptor (IL-2R) complex of α, β and γ chains (UniProt P01589 22-272; P14784 27-551; P31785 23-369); experiment: as above
T5 construct: whole, on cells; co-expressed on transiently transfected 293T cells in the control experiment; also called IL-2Rs; the complex
T5 sequence (looked up) 1: T2 sequence (looked up)
T5 sequence (looked up) 2: T4 sequence (looked up)
T5 sequence (looked up) 3: T3 sequence (looked up)

B1: mAb2-3 (isotype not stated for the experiment) (antibody, V domains shown)
VH: QVQLVQSGAEVKKPGASVKVSCKASGYTFASAWMHWMRQAPGQGLEWIGWINPGNVNTKYNEKFKGRATLTVDTSTNTAYMELSSLRSEDTAVYYCARSTYYRPLDYWGQGTLVTVSS
VL: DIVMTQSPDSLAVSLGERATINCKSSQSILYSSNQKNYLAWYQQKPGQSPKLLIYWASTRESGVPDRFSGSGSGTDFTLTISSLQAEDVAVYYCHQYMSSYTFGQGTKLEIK
B1: binds [1]; no binding [2]; no binding [3]. B1: no binding [4]; no binding [5].

From patent US20200369775A1 (Dana-Farber, published 2020)
